{"source": "patent US10130693B2", "about": "“Peptides, combination of peptides and scaffolds for use in immunotherapeutic treatment of various cancers” (Immatics Biotechnologies GmbH, priority 2015, dated 2018)"}
{"biological_target": "HLA-A*02:01 (Homo sapiens, UniProt P04439, D140Y/D185E/D98H/E176V/E277Q/G131W/G231S/I119V/I121R/I166T/I218V/L300P/L318F/N151K/N90K/P208A/P217A/Q86G/Q94H/R138H/R169H/T345S)", "assay": "MHC binding assay, UV-ligand exchange with beta2m ELISA (exchange yield), HLA-A*02", "settings": "binding to HLA-A*02 ranged by peptide exchange yield", "source_text": "Candidate peptides for T cell based therapies according to the present invention were further tested for their MHC binding capacity (affinity). The individual peptide-MHC complexes were produced by UV-ligand exchange, where a UV-sensitive peptide is cleaved upon UV-irradiation, and exchanged with the peptide of interest as analyzed. Only peptide candidates that can effectively bind and stabilize the peptide-receptive MHC molecules prevent dissociation of the MHC complexes. To determine the yield of the exchange reaction, an ELISA was performed based on the detection of the light chain (β2m) of stabilized MHC complexes. The assay was performed as generally described in Rodenko et al. (Rodenko et al., 2006).\n96 well MAXISorp plates (NUNC) were coated over night with 2 ug/ml streptavidin in PBS at room temperature, washed 4× and blocked for 1 h at 37° C. in 2% BSA containing blocking buffer. […] Peptide-MHC monomers of the UV-exchange reaction were diluted 100 fold in blocking buffer. Samples were incubated for 1 h at 37° C., washed four times, incubated with 2 ug/ml HRP conjugated anti-β2m for 1h at 37° C., washed again and detected with TMB solution that is stopped with […]. Absorption was measured at 450 nm. Candidate peptides that show a high exchange yield (preferably higher than 50%, most preferred higher than 75%) are generally preferred for a generation and production of antibodies or fragments thereof, and/or T cell receptors or fragments thereof, as they show sufficient avidity to the MHC molecules and prevent dissociation of the MHC complexes."}
{"substance": "1 (PLWGKVFYL; listed as Homo sapiens) [compound 1]", "Peptide exchange (MHC class I binding score)": "++ (20%-49% = ++)"}
{"substance": "3 (TLLGKQVTL; listed as Homo sapiens) [compound 3]", "Peptide exchange (MHC class I binding score)": "+++ (50%-75% = +++)"}
{"substance": "4 (ELAEIVFKV; listed as Homo sapiens) [compound 4]", "Peptide exchange (MHC class I binding score)": "+++ (50%-75% = +++)"}
{"substance": "5 (SLFGQEVYC; listed as Homo sapiens) [compound 5]", "Peptide exchange (MHC class I binding score)": "+++ (50%-75% = +++)"}
{"substance": "6 (FLDPAQRDL; listed as Homo sapiens) [compound 6]", "Peptide exchange (MHC class I binding score)": "+++ (50%-75% = +++)"}
{"substance": "10 (KTLDVFNIIL; listed as Homo sapiens) [compound 10]", "Peptide exchange (MHC class I binding score)": "++ (20%-49% = ++)"}
{"substance": "11 (GVLKVFLENV; listed as Homo sapiens) [compound 11]", "Peptide exchange (MHC class I binding score)": "++ (20%-49% = ++)"}
{"substance": "12 (GLIYEETRGV; listed as Homo sapiens) [compound 12]", "Peptide exchange (MHC class I binding score)": "++ (20%-49% = ++)"}
{"substance": "13 (VLRDNIQGI; listed as Homo sapiens) [compound 13]", "Peptide exchange (MHC class I binding score)": "+++ (50%-75% = +++)"}
{"substance": "14 (LLDHLSFINKI; listed as Homo sapiens) [compound 14]", "Peptide exchange (MHC class I binding score)": "++ (20%-49% = ++)"}
{"substance": "16 (HLYNNEEQV; listed as Homo sapiens) [compound 16]", "Peptide exchange (MHC class I binding score)": "++ (20%-49% = ++)"}
{"substance": "18 (YVLNEEDLQKV; listed as Homo sapiens) [compound 18]", "Peptide exchange (MHC class I binding score)": "+++ (50%-75% = +++)"}
{"substance": "19 (TLLPTVLTL; listed as Homo sapiens) [compound 19]", "Peptide exchange (MHC class I binding score)": "+++ (50%-75% = +++)"}
{"substance": "20 (ALDGHLYAI; listed as Homo sapiens) [compound 20]", "Peptide exchange (MHC class I binding score)": "+++ (50%-75% = +++)"}
{"substance": "21 (SLYHRVLLY; listed as Homo sapiens) [compound 21]", "Peptide exchange (MHC class I binding score)": "++++ (>=75% = ++++)"}
{"substance": "22 (MLSDLTLQL; listed as Homo sapiens) [compound 22]", "Peptide exchange (MHC class I binding score)": "++++ (>=75% = ++++)"}
{"substance": "23 (AQTVVVIKA; listed as Homo sapiens) [compound 23]", "Peptide exchange (MHC class I binding score)": "+ (<20% = +)"}
{"substance": "24 (FLWNGEDSAL; listed as Homo sapiens) [compound 24]", "Peptide exchange (MHC class I binding score)": "+++ (50%-75% = +++)"}
{"substance": "25 (IQADDFRTL; listed as Homo sapiens) [compound 25]", "Peptide exchange (MHC class I binding score)": "++ (20%-49% = ++)"}
{"substance": "26 (KVDGVVIQL; listed as Homo sapiens) [compound 26]", "Peptide exchange (MHC class I binding score)": "+++ (50%-75% = +++)"}
{"substance": "27 (KVFGDLDQV; listed as Homo sapiens) [compound 27]", "Peptide exchange (MHC class I binding score)": "+++ (50%-75% = +++)"}
{"substance": "28 (TLYSMDLMKV; listed as Homo sapiens) [compound 28]", "Peptide exchange (MHC class I binding score)": "+++ (50%-75% = +++)"}
{"substance": "29 (TLCNKTFTA; listed as Homo sapiens) [compound 29]", "Peptide exchange (MHC class I binding score)": "+++ (50%-75% = +++)"}
{"substance": "31 (ALSDETKNNWEV; listed as Homo sapiens) [compound 31]", "Peptide exchange (MHC class I binding score)": "++++ (>=75% = ++++)"}
{"substance": "32 (ILADEAFFSV; listed as Homo sapiens) [compound 32]", "Peptide exchange (MHC class I binding score)": "+++ (50%-75% = +++)"}
{"substance": "33 (LLLPLLPPLSPSLG; listed as Homo sapiens) [compound 33]", "Peptide exchange (MHC class I binding score)": "+++ (50%-75% = +++)"}
{"substance": "35 (YVLPKLYVKL; listed as Homo sapiens) [compound 35]", "Peptide exchange (MHC class I binding score)": "++ (20%-49% = ++)"}
{"substance": "36 (KLYGIEIEV; listed as Homo sapiens) [compound 36]", "Peptide exchange (MHC class I binding score)": "++++ (>=75% = ++++)"}
{"substance": "37 (ALINDILGELVKL; listed as Homo sapiens) [compound 37]", "Peptide exchange (MHC class I binding score)": "+++ (50%-75% = +++)"}
{"substance": "38 (KMQEDLVTL; listed as Homo sapiens) [compound 38]", "Peptide exchange (MHC class I binding score)": "+++ (50%-75% = +++)"}
{"substance": "39 (ALMAVVSGL; listed as Homo sapiens) [compound 39]", "Peptide exchange (MHC class I binding score)": "+++ (50%-75% = +++)"}
{"substance": "40 (SLLALPQDLQA; listed as Homo sapiens) [compound 40]", "Peptide exchange (MHC class I binding score)": "+++ (50%-75% = +++)"}
{"substance": "41 (FVLPLVVTL; listed as Homo sapiens) [compound 41]", "Peptide exchange (MHC class I binding score)": "+++ (50%-75% = +++)"}
{"substance": "42 (VLSPFILTL; listed as Homo sapiens) [compound 42]", "Peptide exchange (MHC class I binding score)": "+++ (50%-75% = +++)"}
{"substance": "44 (GLLWQIIKV; listed as Homo sapiens) [compound 44]", "Peptide exchange (MHC class I binding score)": "++ (20%-49% = ++)"}
{"substance": "45 (VLGPTPELV; listed as Homo sapiens) [compound 45]", "Peptide exchange (MHC class I binding score)": "+++ (50%-75% = +++)"}
{"substance": "46 (SLAKHGIVAL; listed as Homo sapiens) [compound 46]", "Peptide exchange (MHC class I binding score)": "+++ (50%-75% = +++)"}
{"substance": "47 (GLYQAQVNL; listed as Homo sapiens) [compound 47]", "Peptide exchange (MHC class I binding score)": "+++ (50%-75% = +++)"}
{"substance": "48 (TLDHKPVTV; listed as Homo sapiens) [compound 48]", "Peptide exchange (MHC class I binding score)": "++ (20%-49% = ++)"}
{"substance": "49 (LLDESKLTL; listed as Homo sapiens) [compound 49]", "Peptide exchange (MHC class I binding score)": "+++ (50%-75% = +++)"}
{"substance": "50 (EYALLYHTL; listed as Homo sapiens) [compound 50]", "Peptide exchange (MHC class I binding score)": "++ (20%-49% = ++)"}
{"substance": "51 (LLLDGDFTL; listed as Homo sapiens) [compound 51]", "Peptide exchange (MHC class I binding score)": "+++ (50%-75% = +++)"}
{"substance": "52 (ELLSSIFFL; listed as Homo sapiens) [compound 52]", "Peptide exchange (MHC class I binding score)": "+++ (50%-75% = +++)"}
{"substance": "53 (SLLSHVIVA; listed as Homo sapiens) [compound 53]", "Peptide exchange (MHC class I binding score)": "+++ (50%-75% = +++)"}
{"substance": "54 (FINPKGNWLL; listed as Homo sapiens) [compound 54]", "Peptide exchange (MHC class I binding score)": "+++ (50%-75% = +++)"}
{"substance": "55 (IASAIVNEL; listed as Homo sapiens) [compound 55]", "Peptide exchange (MHC class I binding score)": "++ (20%-49% = ++)"}
{"substance": "56 (KILDLTRVL; listed as Homo sapiens) [compound 56]", "Peptide exchange (MHC class I binding score)": "++ (20%-49% = ++)"}
{"substance": "57 (VLISSTVRL; listed as Homo sapiens) [compound 57]", "Peptide exchange (MHC class I binding score)": "++ (20%-49% = ++)"}
{"substance": "58 (ALDDSLTSL; listed as Homo sapiens) [compound 58]", "Peptide exchange (MHC class I binding score)": "++ (20%-49% = ++)"}
{"substance": "59 (ALTKILAEL; listed as Homo sapiens) [compound 59]", "Peptide exchange (MHC class I binding score)": "+++ (50%-75% = +++)"}
{"substance": "60 (FLIDTSASM; listed as Homo sapiens) [compound 60]", "Peptide exchange (MHC class I binding score)": "++ (20%-49% = ++)"}
{"substance": "61 (HLPDFVKQL; listed as Homo sapiens) [compound 61]", "Peptide exchange (MHC class I binding score)": "++ (20%-49% = ++)"}
{"substance": "62 (SLFNQEVQI; listed as Homo sapiens) [compound 62]", "Peptide exchange (MHC class I binding score)": "+++ (50%-75% = +++)"}
{"substance": "63 (TLSSERDFAL; listed as Homo sapiens) [compound 63]", "Peptide exchange (MHC class I binding score)": "+ (<20% = +)"}
{"substance": "64 (GLSSSSYEL; listed as Homo sapiens) [compound 64]", "Peptide exchange (MHC class I binding score)": "++ (20%-49% = ++)"}
{"test_system": "HLA-A*24", "assay": "MHC binding assay, UV-ligand exchange with beta2m ELISA (exchange yield), HLA-A*24", "design": "species or system human", "settings": "binding to HLA-A*24, UV-ligand exchange", "how_it_was_run": "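Peptide–MHC complexes formed by UV-ligand exchange: a UV-cleavable peptide is replaced by the test peptide, and only binders keep the complex stable. Exchange yield read by streptavidin-capture ELISA on reactions diluted 100-fold, detected with HRP anti-β2m (2 ug/ml, 1 h, 37° C) and TMB at 450 nm.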"}
{"substance": "379 (VFIAQGYTL; listed as Homo sapiens) [compound 379]", "Peptide exchange (MHC class I binding score, peptide exchange yield)": "++++ (>=75% = ++++)"}
{"substance": "381 (KYPASSSVF; listed as Homo sapiens) [compound 381]", "Peptide exchange (MHC class I binding score, peptide exchange yield)": "+++ (50%-75% = +++)"}
{"substance": "382 (AYLPPLQQVF; listed as Homo sapiens) [compound 382]", "Peptide exchange (MHC class I binding score, peptide exchange yield)": "+++ (50%-75% = +++)"}
{"substance": "383 (RYKPGEPITF; listed as Homo sapiens) [compound 383]", "Peptide exchange (MHC class I binding score, peptide exchange yield)": "+++ (50%-75% = +++)"}
{"substance": "384 (RYFDVGLHNF; listed as Homo sapiens) [compound 384]", "Peptide exchange (MHC class I binding score, peptide exchange yield)": "+++ (50%-75% = +++)"}
{"substance": "385 (QYIEELQKF; listed as Homo sapiens) [compound 385]", "Peptide exchange (MHC class I binding score, peptide exchange yield)": "+++ (50%-75% = +++)"}
{"substance": "386 (TFSDVEAHF; listed as Homo sapiens) [compound 386]", "Peptide exchange (MHC class I binding score, peptide exchange yield)": "+++ (50%-75% = +++)"}
{"substance": "387 (KYTEKLEEI; listed as Homo sapiens) [compound 387]", "Peptide exchange (MHC class I binding score, peptide exchange yield)": "+++ (50%-75% = +++)"}
{"substance": "388 (IYGEKTYAF; listed as Homo sapiens) [compound 388]", "Peptide exchange (MHC class I binding score, peptide exchange yield)": "+++ (50%-75% = +++)"}
